In doi:10.1101/2024.08.14.607909 (bioRxiv, 2024):

B1: Δ1-24_PTX3 (PTX3 truncation mutant with residues 1-24 of the mature protein deleted) (domain or fragment, human)
chain: ELEDPTPCACGQEHSEWDKLFIMLENSQMRERMLLQATDDVLRGELQRLREELGRLAESLARPCAPGAPAEARLTSALDELLQATRDAGRRLARMEGAEAQRPEEAGRALAAVLEELRQTRADLHAVQGWAARSWLPAGCETAILFPMRSKKIFGSVHPVRPMRLESFSACIWVKATDVLNKTILFSYGTKRNPYEIQLYLSYQSIVFVVGGEENKLVAEAMVSLGRWTHLCGTWNSEEGLTSLWVNGELAATTVEMATGHIVPEGGILQIGQEKNGCCVGGGFDETLAFSGRLTGFNIWDSVLSNEEIRETGGAESCHIRGNIVGWGVTEIQPHGGAQYVS
modifications: N-linked glycan at N220
B2: C-terminal pentraxin domain of human PTX3 (domain or fragment)
chain: ELEGCETAILFPMRSKKIFGSVHPVRPMRLESFSACIWVKATDVLNKTILFSYGTKRNPYEIQLYLSYQSIVFVVGGEENKLVAEAMVSLGRWTHLCGTWNSEEGLTSLWVNGELAATTVEMATGHIVPEGGILQIGQEKNGCCVGGGFDETLAFSGRLTGFNIWDSVLSNEEIRETGGAESCHIRGNIVGWGVTEIQPHGGAQYVS
modifications: N-linked glycan at N220

What was measured:
SEC-SAXS = target: the molecule itself; test: SEC-SAXS
crystal structure = target: the molecule itself; test: crystal structure

Protein | binding result (SEC-SAXS) | binding result (crystal structure)
B1 | binds | 
B2 |  | binds
